Results as given in IntAct's records for PubMed 31515488.

B1: Protein LDOC1 (Homo sapiens), O95751 (parent)
chain: MVDELVLLLHALLMRHRALSIENSQLMEQLRLLVCERASLLRQVRPPSCPVPFPETFNGESSRLPEFIVQTASYMLVNENRFCNDAMKVAFLISLLTGEAEEWVVPYIEMDSPILGDYRAFLDEMKQCFGWDDDEDDDDEEEEDDY
partner: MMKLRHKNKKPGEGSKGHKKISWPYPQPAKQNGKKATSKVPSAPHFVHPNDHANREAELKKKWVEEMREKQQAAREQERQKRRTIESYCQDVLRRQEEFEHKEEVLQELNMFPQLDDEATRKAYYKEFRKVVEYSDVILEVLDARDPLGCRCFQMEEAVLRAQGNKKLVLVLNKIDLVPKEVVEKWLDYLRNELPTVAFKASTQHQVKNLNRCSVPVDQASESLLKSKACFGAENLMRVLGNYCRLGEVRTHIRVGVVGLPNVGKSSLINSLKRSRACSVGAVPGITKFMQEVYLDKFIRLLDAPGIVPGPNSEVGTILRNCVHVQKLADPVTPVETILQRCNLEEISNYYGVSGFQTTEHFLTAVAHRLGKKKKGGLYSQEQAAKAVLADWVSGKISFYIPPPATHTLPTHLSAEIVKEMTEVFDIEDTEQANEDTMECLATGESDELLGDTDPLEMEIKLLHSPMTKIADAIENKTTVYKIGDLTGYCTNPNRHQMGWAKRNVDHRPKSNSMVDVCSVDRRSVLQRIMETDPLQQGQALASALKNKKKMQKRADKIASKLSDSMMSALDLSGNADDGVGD
B2: Zinc finger protein Aiolos (Homo sapiens), Q9UKT9 (parent)
chain: MEDIQTNAELKSTQEQSVPAESAAVLNDYSLTKSHEMENVDSGEGPANEDEDIGDDSMKVKDEYSERDENVLKSEPMGNAEEPEIPYSYSREYNEYENIKLERHVVSFDSSRPTSGKMNCDVCGLSCISFNVLMVHKRSHTGERPFQCNQCGASFTQKGNLLRHIKLHTGEKPFKCHLCNYACQRRDALTGHLRTHSVEKPYKCEFCGRSYKQRSSLEEHKERCRTFLQSTDPGDTASAEARHIKAEMGSERALVLDRLASNVAKRKSSMPQKFIGEKRHCFDVNYNSSYMYEKESELIQTRMMDQAINNAISYLGAEALRPLVQTPPAPTSEMVPVISSMYPIALTRAEMSNGAPQELEKKSIHLPEKSVPSERGLSPNNSGHDSTDTDSNHEERQNHIYQQNHMVLSRARNGMPLLKEVPRSYELLKPPPICPRDSVKVINKEGEVMDVYRCDHCRVLFLDYVMFTIHMGCHGFRDPFECNMCGYRSHDRYEFSSHIARGEHRALLK
partner: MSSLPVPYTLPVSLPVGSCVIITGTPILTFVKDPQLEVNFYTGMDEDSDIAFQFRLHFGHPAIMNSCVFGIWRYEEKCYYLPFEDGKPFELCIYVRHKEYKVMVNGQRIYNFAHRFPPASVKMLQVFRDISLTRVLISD
B3: Dynein axonemal light chain 4 (Homo sapiens), O96015 (parent)
chain: MGETEGKKDEADYKRLQTFPLVRHSDMPEEMRVETMELCVTACEKFSNNNESAAKMIKETMDKKFGSSWHVVIGEGFGFEITHEVKNLLYLYFGGTLAVCVWKCS
B4: Homeobox protein VENTX (Homo sapiens), O95231 (parent)
chain: MRLSSSPPRGPQQLSSFGSVDWLSQSSCSGPTHTPRPADFSLGSLPGPGQTSGAREPPQAVSIKEAAGSSNLPAPERTMAGLSKEPNTLRAPRVRTAFTMEQVRTLEGVFQHHQYLSPLERKRLAREMQLSEVQIKTWFQNRRMKHKRQMQDPQLHSPFSGSLHAPPAFYSTSSGLANGLQLLCPWAPLSGPQALMLPPGSFWGLCQVAQEALASAGASCCGQPLASHPPTPGRPSLGPALSTGPRGLCAMPQTGDAF
partner: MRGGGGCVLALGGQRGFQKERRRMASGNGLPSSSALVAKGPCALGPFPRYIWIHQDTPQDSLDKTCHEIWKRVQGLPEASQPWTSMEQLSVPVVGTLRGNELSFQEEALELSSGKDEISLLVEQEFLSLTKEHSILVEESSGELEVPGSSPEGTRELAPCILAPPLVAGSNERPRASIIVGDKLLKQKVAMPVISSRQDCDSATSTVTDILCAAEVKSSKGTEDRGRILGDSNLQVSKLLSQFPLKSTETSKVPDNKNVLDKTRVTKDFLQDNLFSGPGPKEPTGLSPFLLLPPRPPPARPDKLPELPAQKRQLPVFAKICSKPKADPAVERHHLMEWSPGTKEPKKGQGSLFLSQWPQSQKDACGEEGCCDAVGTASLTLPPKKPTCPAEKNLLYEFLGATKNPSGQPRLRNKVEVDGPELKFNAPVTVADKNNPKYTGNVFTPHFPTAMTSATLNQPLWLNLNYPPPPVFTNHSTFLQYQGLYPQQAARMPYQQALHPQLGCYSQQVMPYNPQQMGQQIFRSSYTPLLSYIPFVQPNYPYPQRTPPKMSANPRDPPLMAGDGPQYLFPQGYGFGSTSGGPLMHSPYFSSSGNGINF
B5: Cyclic AMP-dependent transcription factor ATF-2 (Homo sapiens), P15336 (parent)
chain: MKFKLHVNSARQYKDLWNMSDDKPFLCTAPGCGQRFTNEDHLAVHKHKHEMTLKFGPARNDSVIVADQTPTPTRFLKNCEEVGLFNELASPFENEFKKASEDDIKKMPLDLSPLATPIIRSKIEEPSVVETTHQDSPLPHPESTTSDEKEVPLAQTAQPTSAIVRPASLQVPNVLLTSSDSSVIIQQAVPSPTSSTVITQAPSSNRPIVPVPGPFPLLLHLPNGQTMPVAIPASITSSNVHVPAAVPLVRPVTMVPSVPGIPGPSSPQPVQSEAKMRLKAALTQQHPPVTNGDTVKGHGSGLVRTQSEESRPQSLQQPATSTTETPASPAHTTPQTQSTSGRRRRAANEDPDEKRRKFLERNRAAASRCRQKRKVWVQSLEKKAEDLSSLNGQLQSEVTLLRNEVAQLKQLLLAHKDCPVTAMQKKSGYHTADKDDSSEDISVPSSPHTEAIQHSSVSTSNGVSSTSKAEAVATSVLTQMADQSTEPALSQIVMAPSSQSQPSGS
B6: Notch homolog 2 N-terminal-like protein A (Homo sapiens), Q7Z3S9 (parent)
chain: MCVTYHNGTGYCKCPEGFLGEYCQHRDPCEKNRCQNGGTCVAQAMLGKATCRCASGFTGEDCQYSTSHPCFVSRPCLNGGTCHMLSRDTYECTCQVGFTGKECQWTDACLSHPCANGSTCTTVANQFSCKCLTGFTGQKCETDVNECDIPGHCQHGGTCLNLPGSYQCQCLQGFTGQYCDSLYVPCAPSPCVNGGTCRQTGDFTFECNCLPETVRRGTELWERDREVWNGKEHDEN
partner: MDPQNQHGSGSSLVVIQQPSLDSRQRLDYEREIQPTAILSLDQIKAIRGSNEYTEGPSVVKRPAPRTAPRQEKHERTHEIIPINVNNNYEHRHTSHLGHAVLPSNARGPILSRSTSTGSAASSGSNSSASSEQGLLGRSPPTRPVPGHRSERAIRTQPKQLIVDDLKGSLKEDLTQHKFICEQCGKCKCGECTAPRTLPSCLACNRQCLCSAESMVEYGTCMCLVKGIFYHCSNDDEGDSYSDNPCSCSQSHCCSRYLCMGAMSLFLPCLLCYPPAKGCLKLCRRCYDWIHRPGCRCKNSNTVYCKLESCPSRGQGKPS
B7: Protein FAM168A (Homo sapiens), Q92567 (parent)
chain: MNPVYSPVQPGAPYGNPKNMAYTGYPTAYPAAAPAYNPSLYPTNSPSYAPEFQFLHSAYATLLMKQAWPQNSSSCGTEGTFHLPVDTGTENRTYQASSAAFRYTAGTPYKVPPTQSNTAPPPYSPSPNPYQTAMYPIRSAYPQQNLYAQGAYYTQPVYAAQPHVIHHTTVVQPNSIPSAIYPAPVAAPRTNGVAMGMVAGTTMAMSAGTLLTTPQHTAIGAHPVSMPTYRAQGTPAYSYVPPHW
partner: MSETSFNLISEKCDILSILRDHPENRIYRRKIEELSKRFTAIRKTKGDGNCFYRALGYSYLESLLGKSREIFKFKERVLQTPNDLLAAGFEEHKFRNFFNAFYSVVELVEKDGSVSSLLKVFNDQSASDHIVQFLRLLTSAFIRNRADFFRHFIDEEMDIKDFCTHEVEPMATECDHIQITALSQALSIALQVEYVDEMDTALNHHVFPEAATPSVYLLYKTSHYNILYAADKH

Variants of: B1
Details: with gnl3l_human GNL3L

| Variant | effect of a mutation on the interaction |
| --- | --- |
| L12H | disrupting interaction strength |

Variants of: B2
Details: with ppl13_human LGALS14, Q8TCE9

| Variant | effect of a mutation on the interaction |
| --- | --- |
| N119D | with no effect |
| A24V | with no effect |

Variants of: B3
Details: with dyl2_human DYNLL2, Q96FJ2
Chain of dyl2_human DYNLL2, Q96FJ2 (Q96FJ2 whole entry): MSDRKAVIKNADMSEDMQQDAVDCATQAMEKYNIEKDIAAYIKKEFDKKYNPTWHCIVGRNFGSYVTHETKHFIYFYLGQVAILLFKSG

| Variant | effect of a mutation on the interaction |
| --- | --- |
| R32C | disrupting interaction strength |

Variants of: B4
Details: with ca094_human C1orf94, Q6P1W5

| Variant | effect of a mutation on the interaction |
| --- | --- |
| L42P | with no effect |
| A226E | with no effect |
| M251V | with no effect |

Variants of: B5
Details: with jun_human JUN

| Variant | effect of a mutation on the interaction |
| --- | --- |
| S456L | with no effect |

Variants of: B6
Details: with spy1_human SPRY1, O43609

| Variant | effect of a mutation on the interaction |
| --- | --- |
| R74Q | with no effect |
| A115T | with no effect |

Variants of: B7
Details: with otub2_human OTUB2, Q96DC9

| Variant | effect of a mutation on the interaction |
| --- | --- |
| P122R | disrupting interaction strength |
